The target in experiment [1] is T1, human A-beta(1-40) peptide, monomeric (BAM) (human, biotin at the C-terminus in capture ELISA, SPR and TR-FRET; not biotinylated where coated directly (Example 7)).
T1 construct: synthetic peptide (Anaspec), TFA/HFIP treated to give monomer; also called monomeric A-beta
The experiment can be described thus: TR-FRET competition, mean IC50. A general note: Time-resolved FRET reads energy transfer from a long-lived donor to a nearby acceptor.

Experiment [2] addresses T1, human A-beta(1-40) peptide, monomeric …. The experiment can be described thus: TR-FRET competition; labelled competitor not given.
The target is the same in experiment [3]. Briefly: TR-FRET competition, labelled ABII42D4.

B1: ABII020 (VHH)
VHH: EVQLLESGGGLVQPGGSLRLSCAHSGPTFRTDTMGWFRQAPGKGREFVAAVTWNSGRINYADSVKGRFTISRDNSKNTLYLQMNSLRPEDTAVYYCAAHRFVVGGNRVEDWRYWGQGTLVTVSS
notes: humanized variant of ABII002
Broadly, the IC50 is the concentration needed to halve the response being measured. A higher IC50 goes with lower potency. Turning to B1, the half-inhibitory concentration (IC50) in experiment [1] and in experiment [2] was 110 nM in each case.

B2: ABII026 (VHH)
VHH: EVQLLESGGGLVQPGGSLRLSCAHSGPTFRTDTMGWFRQAPGKGREFVAAVTWNSGRINYADSVKGRFTISRDNSKNTAYLQMNSLRPEDTAVYYCAAHRFVVGGNRVEDWRYWGQGTLVTVSS
notes: humanized variant of ABII002
For B2, the IC50 in experiment [1] and in experiment [2] was 5.1 nM throughout.

B3: ABII029 (VHH)
VHH: EVQLLESGGGLVQPGGSLRLSCVHSGPTFRTDTMGWFRQAPGKGREFVAAVTWNSGRINYADSVKGRFTISRDNSKNTLYLQMNSLRPEDTAVYYCAAHRFVVGGNRVEDWRYWGQGTLVTVSS
notes: humanized variant of ABII002
On to B3, for which the IC50 in experiment [1] and in experiment [2] was 89 nM each time.

B4: ABII034 (VHH)
VHH: EVQLLESGGGLVQPGGSLRLSCVHSGPTFRTDTMGWFRQAPGKGREFVAAVTWNSGRINYADSVKGRFTISRDNSKNTVYLQMSSLRPEDTAVYYCAAHRFVVGGNRVEDWRYWGQGTLVTVSS
notes: humanized variant of ABII002
As for B4, the IC50 in experiment [1] and in experiment [2] was 10 nM throughout.

B5: ABII024 (VHH)
VHH: EVQLLESGGGLVQPGGSLRLSCAHSGPTFRTDTMGWFRQAPGKGREFVAAVTWNSGRINYADSVKGRFTISRDNSKNAAYLQMSSLRPEDTAVYYCAAHRFVVGGNRVEDWRYWGQGTLVTVSS
notes: humanized variant of ABII002
Regarding B5, the IC50 in experiment [1] and in experiment [2] was 6 nM each time.

B6: ABII028 (VHH)
VHH: EVQLLESGGGLVQPGGSLRLSCVHSGPTFRTDTMGWFRQAPGKGREFVAAVTWNSGRINYADSVKGRFTISRDNSKNTVYLQMNSLRPEDTAVYYCAAHRFVVGGNRVEDWRYWGQGTLVTVSS
notes: humanized variant of ABII002
Take B6: the IC50 in experiment [1] and in experiment [2] was 11 nM each time.

B7: ABII023 (VHH)
VHH: EVQLLESGGGLVQPGGSLRLSCAHSGPTFRTDTMGWFRQAPGKGREFVAAVTWNSGRINYADSVKGRFTISRDNSKNAAYLQMNSLRPEDTAVYYCAAHRFVVGGNRVEDWRYWGQGTLVTVSS
notes: humanized variant of ABII002
On to B7, for which the IC50 in experiment [1] and in experiment [2] was 5.8 nM each time.

B8: ABII021 (VHH)
VHH: EVQLLESGGGLVQPGGSLRLSCAHSGPTFRTDTMGWFRQAPGKGREFVAAVTWNSGRINYADSVKGRFTISRDNSKNAVYLQMNSLRPEDTAVYYCAAHRFVVGGNRVEDWRYWGQGTLVTVSS
notes: humanized variant of ABII002
In the case of B8, the IC50 in experiment [1] and in experiment [2] was 24 nM in each case.

B9: ABII033 (VHH)
VHH: EVQLLESGGGLVQPGGSLRLSCVHSGPTFRTDTMGWFRQAPGKGREFVAAVTWNSGRINYADSVKGRFTISRDNSKNAAYLQMSSLRPEDTAVYYCAAHRFVVGGNRVEDWRYWGQGTLVTVSS
notes: humanized variant of ABII002
As to B9, the IC50 in experiment [1] and in experiment [2] was 4 nM each time.

B10: ABII036 (VHH)
VHH: EVQLLESGGGLVQPGGSLRLSCVHSGPTFRTDTMGWFRQAPGKGREFVAAVTWNSGRINYADSVKGRFTISRDNSKNTAYLQMSSLRPEDTAVYYCAAHRFVVGGNRVEDWRYWGQGTLVTVSS
notes: humanized variant of ABII002
As for B10, the concentration for half-maximal inhibition (IC50) in experiment [1] and in experiment [2] was 3.5 nM in each case.

B11: ABII027 (VHH)
VHH: EVQLLESGGGLVQPGGSLRLSCAHSGPTFRTDTMGWFRQAPGKGREFVAAVTWNSGRINYADSVKGRFTISRDNSKNTAYLQMSSLRPEDTAVYYCAAHRFVVGGNRVEDWRYWGQGTLVTVSS
notes: humanized variant of ABII002
On to B11, for which the 50% inhibitory concentration (IC50) in experiment [1] and in experiment [2] was 4.4 nM in each case.

B12: ABII025 (VHH)
VHH: EVQLLESGGGLVQPGGSLRLSCAHSGPTFRTDTMGWFRQAPGKGREFVAAVTWNSGRINYADSVKGRFTISRDNSKNTVYLQMSSLRPEDTAVYYCAAHRFVVGGNRVEDWRYWGQGTLVTVSS
notes: humanized variant of ABII002
In the case of B12, the IC50 in experiment [1] and in experiment [2] was 18 nM in each case.

B13: ABII032 (VHH)
VHH: EVQLLESGGGLVQPGGSLRLSCVHSGPTFRTDTMGWFRQAPGKGREFVAAVTWNSGRINYADSVKGRFTISRDNSKNAAYLQMNSLRPEDTAVYYCAAHRFVVGGNRVEDWRYWGQGTLVTVSS
notes: humanized variant of ABII002
Take B13: the half-inhibitory concentration (IC50) in experiment [1] and in experiment [2] was 4.9 nM each time.

B14: ABII031 (VHH)
VHH: EVQLLESGGGLVQPGGSLRLSCVHSGPTFRTDTMGWFRQAPGKGREFVAAVTWNSGRINYADSVKGRFTISRDNSKNAVYLQMSSLRPEDTAVYYCAAHRFVVGGNRVEDWRYWGQGTLVTVSS
notes: humanized variant of ABII002
With B14, the IC50 in experiment [1] and in experiment [2] was 13 nM throughout.

B15: ABII030 (VHH)
VHH: EVQLLESGGGLVQPGGSLRLSCVHSGPTFRTDTMGWFRQAPGKGREFVAAVTWNSGRINYADSVKGRFTISRDNSKNAVYLQMNSLRPEDTAVYYCAAHRFVVGGNRVEDWRYWGQGTLVTVSS
notes: humanized variant of ABII002
Consider B15, for which the IC50 in experiment [1] and in experiment [2] was 12 nM in each case.

B16: ABII022 (VHH)
VHH: EVQLLESGGGLVQPGGSLRLSCAHSGPTFRTDTMGWFRQAPGKGREFVAAVTWNSGRINYADSVKGRFTISRDNSKNAVYLQMSSLRPEDTAVYYCAAHRFVVGGNRVEDWRYWGQGTLVTVSS
notes: humanized variant of ABII002
For the molecule B16, the IC50 in experiment [1] and in experiment [2] was 16 nM throughout.

B17: ABII111B5_E109W (VHH)
VHH: EVQLVESGGGLVLAGGSLRLSCVHSGPTFRTDTMGWFRQAPGKEREFVAAVTWNSGRINYADSVKGRFTVSRDNTRNAAYLQMSGLKDEDTAVYYCTAHRFVVGGNMVWDWRYWGQGTQVTVSS
notes: targeted mutant
B17 registered an IC50 in experiment [3] of 4.7 nM.

B18: ABII111E5cl1 (VHH)
VHH: EVQLVESGGGLVLAGGSLRLSCVHSGPTFLTDTMGWFRQAPGKEREFVAAVTWNSGRINYADSVKGRFTVSRDNTRNAAYLQMSGLKDEDTAVYYCTAHRFVVGGREVQDWRYWGQGTQVTVSS
notes: c-myc and (His)6 tags
Consider B18, for which the IC50 in experiment [3] worked out at 8.8 nM.

B19: ABIIPMP111F2 (VHH)
VHH: EVQLVESGGGLVLAGGSLRLSCVHSGPTFSTDTMGWFRQAPGKEREFVAAVTWNSGRTNYADSVKGRFTVSRDNTRNAAYLQMSGLKDEDTAVYYCTANRHSVGRLSVGDWRYWGQGSQVTVSS
notes: c-myc and (His)6 tags
For B19, the IC50 in experiment [3] came to 3.4 nM.

B20: ABIIPMP111C6 (VHH)
VHH: EVQLVESGGGLVLAGGSLRLSCVHSGPTFWTDTMGWFRQAPGKEREFVAAVTWNSGRLNYADSVKGRFTVSRDNTRNAAYLQMSGLKDEDTAVYYCTAHRQVVGGVQVLDWRYWGQGTQVTVSS
notes: c-myc and (His)6 tags
For the molecule B20, the IC50 in experiment [3] came out at 6 nM.

B21: ABIIPMP111E4 (VHH)
VHH: EVQLVESGGGLVLAGGSLRLSCVHSGPTFSTDTMGWFRQAPGKEREFVAAVTWNSGRTNYADSVKGRFTVSRDNTRNAAYLQMSGLKDEDTAVYYCTAARLTVGSLSVGDWRYWGQGTQVTVSS
notes: c-myc and (His)6 tags
As for B21, the IC50 in experiment [3] turned out to be 6.1 nM.

B22: ABII111B5_F101W (VHH)
VHH: EVQLVESGGGLVLAGGSLRLSCVHSGPTFRTDTMGWFRQAPGKEREFVAAVTWNSGRINYADSVKGRFTVSRDNTRNAAYLQMSGLKDEDTAVYYCTAHRWVVGGNMVEDWRYWGQGTQVTVSS
notes: targeted mutant
The molecule B22 showed an IC50 in experiment [3] of 7.3 nM.

B23: ABIIPMP111B4 (VHH)
VHH: EVQLVESGGGLVLAGGSLRLSCVHSGPTFWTDTMGWFRQAPGKEREFVAAVTWSSGRANYADSVKGRFTVSRDNTRNAAYLQMSGLKDEDTAVYYCTAHRGVVGGWVVVDWRYWGQGTQVTVSS
notes: c-myc and (His)6 tags
Take B23: in experiment [3], the IC50 amounted to 5.1 nM.

B24: ABII111B5_N106T (VHH)
VHH: EVQLVESGGGLVLAGGSLRLSCVHSGPTFRTDTMGWFRQAPGKEREFVAAVTWNSGRINYADSVKGRFTVSRDNTRNAAYLQMSGLKDEDTAVYYCTAHRFVVGGTMVEDWRYWGQGTQVTVSS
notes: targeted mutant
As for B24, the IC50 in experiment [3] is 9.2 nM.

B25: ABII111B5_R30W (VHH)
VHH: EVQLVESGGGLVLAGGSLRLSCVHSGPTFWTDTMGWFRQAPGKEREFVAAVTWNSGRINYADSVKGRFTVSRDNTRNAAYLQMSGLKDEDTAVYYCTAHRFVVGGNMVEDWRYWGQGTQVTVSS
notes: targeted mutant
Turning to B25, in experiment [3], the IC50 was 5 nM.

B26: ABIIPMP111C4 (VHH)
VHH: EVQLVESGGGLVLAGGSLRLSCVHSGPTFLTDTMGWFRQAPGKEREFVAAVTWNSGRANYADSVKGRFTVSRDNTRNAAYLQMSGLKDEDTAVYYCTAHRSVVGGVGVWDWRYWSQGTQVTVSS
notes: c-myc and (His)6 tags
As for B26, the IC50 in experiment [3] is 8.6 nM.

B27: ABII111B5_N106V (VHH)
VHH: EVQLVESGGGLVLAGGSLRLSCVHSGPTFRTDTMGWFRQAPGKEREFVAAVTWNSGRINYADSVKGRFTVSRDNTRNAAYLQMSGLKDEDTAVYYCTAHRFVVGGVMVEDWRYWGQGTQVTVSS
notes: targeted mutant
B27 registered an IC50 in experiment [3] of 10 nM.

B28: ABII111B5_R30K (VHH)
VHH: EVQLVESGGGLVLAGGSLRLSCVHSGPTFKTDTMGWFRQAPGKEREFVAAVTWNSGRINYADSVKGRFTVSRDNTRNAAYLQMSGLKDEDTAVYYCTAHRFVVGGNMVEDWRYWGQGTQVTVSS
notes: targeted mutant
B28: the IC50 in experiment [3] was 5.3 nM.

B29: ABIIPMP111B9 (VHH)
VHH: EVQLVESGGGLVLAGGSLRLSCVHSGPTFGTDTMGWFRQAPGKEREFVAAVTWNSGRANYADSVKGRFTVSRDNTRNAAYLQMSGLKDEDTAVYYCTAHRFVVGGGCVKDWRYWGQGTQVTVSS
notes: c-myc and (His)6 tags
As for B29, the IC50 in experiment [3] is 19 nM.

The values are drawn from US20120058118A1 (Boehringer Ingelheim, published 2012).
